Reference: patent publication US20110281938, “APTAMERS TO TISSUE FACTOR PATHWAY INHIBITOR AND THEIR USE AS BLEEDING DISORDER THERAPEUTICS” (Baxter Healthcare S.A., published 2011)
Positions count from the first letter of the chain named.

Biological target: TFPI (tissue factor pathway inhibitor, full-length) (Homo sapiens, UniProt P10646 SEQ:1-276)
Assay: competition; dot-blot
Conditions: tags: American Diagnostica 4500PC/4900PC, E. coli expressed
Experimental: Each molecule was evaluated for binding to tissue factor pathway inhibitor (TFPI) in a binding-competition assay. For these experiments, 10 nM human TFPI (American Diagnostica, Stamford, Conn., catalog #4500PC) was incubated with trace amounts of radiolabeled ARC17480 and 5000 nM, 1666.67 nM, 555.56 nM, 185.19 nM, 61.73 nM, 20.58 nM, 6.86 nM, 2.29 nM, 0.76 nM or 0.25 nM of unlabeled competitor aptamer. ARC17480 was included as a competitor in every experiment as a control. For each molecule, the percentage of radiolabeled ARC17480 bound at each competitor aptamer concentration was used for analysis. The percentage of radiolabeled ARC17480 bound was plotted as a function of aptamer concentration and fit to the equation y=(max/(1+x/IC₅₀))+int, where y=the percentage of radiolabeled ARC17480 bound, x=the concentration of aptamer, max=the maximum radiolabeled ARC17480 bound, and int=the y-intercept, to generate an IC₅₀ value for binding-competition. The IC₅₀ of each aptamer was compared to the IC₅₀ of ARC17480 that was evaluated in the same experiment. A substitution was considered tolerated in the binding-competition assay if the IC₅₀ of that molecule was not more than 5-fold greater than that of ARC17480 evaluated in the same experiment. Tolerated substitutions are indicated in Table 37 as meeting the assay criteria (“yes”) or not meeting the assay criteria (“no”).

Chain of TFPI (tissue factor pathway inhibitor, full-length) (P10646 29-304): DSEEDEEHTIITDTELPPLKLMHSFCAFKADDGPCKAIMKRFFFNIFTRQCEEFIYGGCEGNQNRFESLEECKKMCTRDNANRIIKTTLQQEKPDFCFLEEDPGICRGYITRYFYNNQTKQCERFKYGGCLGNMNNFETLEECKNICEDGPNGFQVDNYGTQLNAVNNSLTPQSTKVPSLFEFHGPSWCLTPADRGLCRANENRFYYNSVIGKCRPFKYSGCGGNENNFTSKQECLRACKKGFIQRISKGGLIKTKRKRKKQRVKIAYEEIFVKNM

B1: ARC19452 (XNA)
mixed: GGAATAUACUUGGCUCGUUAGGUGCGUAUAUA
modifications: 2'-OMe except dC9, dC14, dC16, dC25 and dT5; 3' idT
binding signal: ≤ 5 fold IC50 vs ARC17480

B2: ARC19496 (XNA)
RNA: B1 mixed with T5U
modifications: 2'-OMe except dC9, dC14, dC16; 2'-F C25; 3' idT
binding signal: ≤ 5 fold IC50 vs ARC17480

B3: ARC19455 (XNA)
RNA: B1 mixed with T5U
modifications: 2'-OMe except dC9, dC14, dC16, dC25 and dA8; 3' idT
binding signal: ≤ 5 fold IC50 vs ARC17480

B4: ARC19453 (XNA)
RNA: B1 mixed with T5U
modifications: 2'-OMe except dC9, dC14, dC16, dC25 and dA6; 3' idT
binding signal: ≤ 5 fold IC50 vs ARC17480

B5: ARC33872 (XNA)
RNA: B1 mixed with T5U
modifications: 2'-OMe except dC9, dC14, dC16, dC25 and dU18; 3' idT
binding signal: ≤ 5 fold IC50 vs ARC17480

B6: ARC19460 (XNA)
mixed: B1 mixed with T5U, U15T
modifications: 2'-OMe except dC9, dC14, dC16, dC25 and dT15; 3' idT
binding signal: ≤ 5 fold IC50 vs ARC17480

B7: ARC19461 (XNA)
RNA: B1 mixed with T5U
modifications: 2'-OMe except dC9, dC14, dC16, dC25 and dG17; 3' idT
binding signal: ≤ 5 fold IC50 vs ARC17480

B8: ARC19472 (XNA)
mixed: B1 mixed with T5U, U29T
modifications: 2'-OMe except dC9, dC14, dC16, dC25 and dT29; 3' idT
binding signal: ≤ 5 fold IC50 vs ARC17480

B9: ARC33877 (XNA)
RNA: B1 mixed with T5U
modifications: 2'-OMe except dC9, dC14, dC16, dC25 and dU31; 3' idT
binding signal: ≤ 5 fold IC50 vs ARC17480

B10: ARC33875 (XNA)
RNA: B1 mixed with T5U
modifications: 2'-OMe except dC9, dC14, dC16, dC25 and dU27; 3' idT
binding signal: ≤ 5 fold IC50 vs ARC17480

B11: ARC33867 (XNA)
RNA: B1 mixed with T5U
modifications: 2'-OMe except dC9, dC14, dC16, dC25 and dU5; 3' idT
binding signal: ≤ 5 fold IC50 vs ARC17480

B12: ARC19466 (XNA)
RNA: B1 mixed with T5U
modifications: 2'-OMe except dC9, dC14, dC16, dC25 and dG22; 3' idT
binding signal: ≤ 5 fold IC50 vs ARC17480

B13: ARC19468 (XNA)
RNA: B1 mixed with T5U
modifications: 2'-OMe except dC9, dC14, dC16, dC25 and dG24; 3' idT
binding signal: ≤ 5 fold IC50 vs ARC17480

B14: ARC19449 (XNA)
RNA: B1 mixed with T5U
modifications: 2'-OMe except dC9, dC14, dC16, dC25 and dG2; 3' idT
binding signal: ≤ 5 fold IC50 vs ARC17480

B15: ARC19464 (XNA)
RNA: B1 mixed with T5U
modifications: 2'-OMe except dC9, dC14, dC16, dC25 and dA20; 3' idT
binding signal: ≤ 5 fold IC50 vs ARC17480

B16: ARC19463 (XNA)
mixed: B1 mixed with T5U, U19T
modifications: 2'-OMe except dC9, dC14, dC16, dC25 and dT19; 3' idT
binding signal: ≤ 5 fold IC50 vs ARC17480

B17: ARC19458 (XNA)
RNA: B1 mixed with T5U
modifications: 2'-OMe except dC9, dC14, dC16, dC25 and dG12; 3' idT
binding signal: ≤ 5 fold IC50 vs ARC17480

B18: ARC33871 (XNA)
RNA: B1 mixed with T5U
modifications: 2'-OMe except dC9, dC14, dC16, dC25 and dU15; 3' idT
binding signal: ≤ 5 fold IC50 vs ARC17480

B19: ARC19448 (XNA)
RNA: B1 mixed with T5U
modifications: 2'-OMe except dC9, dC14, dC16, dC25 and dG1; 3' idT
binding signal: ≤ 5 fold IC50 vs ARC17480

B20: ARC19473 (XNA)
RNA: B1 mixed with T5U
modifications: 2'-OMe except dC9, dC14, dC16, dC25 and dA30; 3' idT
binding signal: ≤ 5 fold IC50 vs ARC17480

B21: ARC19454 (XNA)
mixed: B1 mixed with T5U, U7T
modifications: 2'-OMe except dC9, dC14, dC16, dC25 and dT7; 3' idT
binding signal: ≤ 5 fold IC50 vs ARC17480

B22: ARC33868 (XNA)
RNA: B1 mixed with T5U
modifications: 2'-OMe except dC9, dC14, dC16, dC25 and dU7; 3' idT
binding signal: ≤ 5 fold IC50 vs ARC17480

B23: ARC19474 (XNA)
mixed: B1 mixed with T5U, U31T
modifications: 2'-OMe except dC9, dC14, dC16, dC25 and dT31; 3' idT
binding signal: ≤ 5 fold IC50 vs ARC17480

B24: ARC19465 (XNA)
RNA: B1 mixed with T5U
modifications: 2'-OMe except dC9, dC14, dC16, dC25 and dG21; 3' idT
binding signal: ≤ 5 fold IC50 vs ARC17480
